Data on two molecules can be found in US20240301385, “DNA MODIFYING ENZYMES AND ACTIVE FRAGMENTS AND VARIANTS THEREOF AND METHODS OF USE” (LIFEEDIT THERAPEUTICS, INC., published 2024).

The data set has as its target T1, APG30125-L32-nAPG07433.1 (synthetic).
T1 chain: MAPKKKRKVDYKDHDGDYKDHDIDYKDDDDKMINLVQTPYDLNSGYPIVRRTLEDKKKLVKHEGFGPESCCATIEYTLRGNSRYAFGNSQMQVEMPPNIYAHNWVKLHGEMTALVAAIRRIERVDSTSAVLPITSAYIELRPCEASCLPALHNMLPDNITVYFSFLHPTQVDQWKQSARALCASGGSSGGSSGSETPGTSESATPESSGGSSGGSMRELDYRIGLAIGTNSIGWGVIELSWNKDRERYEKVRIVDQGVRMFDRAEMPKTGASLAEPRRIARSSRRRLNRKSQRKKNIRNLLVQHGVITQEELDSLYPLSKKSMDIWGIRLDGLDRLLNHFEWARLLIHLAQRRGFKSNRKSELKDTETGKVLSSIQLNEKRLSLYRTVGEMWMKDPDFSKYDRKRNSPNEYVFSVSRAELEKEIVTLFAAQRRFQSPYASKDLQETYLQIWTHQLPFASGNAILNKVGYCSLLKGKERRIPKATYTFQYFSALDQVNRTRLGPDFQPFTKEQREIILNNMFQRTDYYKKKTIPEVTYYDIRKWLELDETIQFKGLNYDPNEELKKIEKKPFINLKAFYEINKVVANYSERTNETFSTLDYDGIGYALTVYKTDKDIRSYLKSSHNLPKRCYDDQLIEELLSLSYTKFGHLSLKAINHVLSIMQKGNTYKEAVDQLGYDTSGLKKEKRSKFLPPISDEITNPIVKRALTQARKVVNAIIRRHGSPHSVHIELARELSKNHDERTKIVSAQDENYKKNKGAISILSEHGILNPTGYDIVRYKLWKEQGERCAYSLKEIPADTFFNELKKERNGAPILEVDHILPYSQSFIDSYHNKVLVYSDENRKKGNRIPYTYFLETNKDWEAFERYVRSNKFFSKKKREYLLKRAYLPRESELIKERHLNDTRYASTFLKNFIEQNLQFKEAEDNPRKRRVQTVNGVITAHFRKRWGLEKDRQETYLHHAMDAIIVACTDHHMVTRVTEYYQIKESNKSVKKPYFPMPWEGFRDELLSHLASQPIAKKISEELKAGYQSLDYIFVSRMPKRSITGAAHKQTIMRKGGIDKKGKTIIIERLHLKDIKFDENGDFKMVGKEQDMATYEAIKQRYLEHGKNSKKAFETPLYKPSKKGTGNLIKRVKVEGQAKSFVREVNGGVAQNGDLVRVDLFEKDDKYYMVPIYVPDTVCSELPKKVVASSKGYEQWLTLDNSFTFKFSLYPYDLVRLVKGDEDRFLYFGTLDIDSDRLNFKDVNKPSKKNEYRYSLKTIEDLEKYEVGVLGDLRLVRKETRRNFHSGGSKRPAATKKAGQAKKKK
The experiment in a line: cell_activity; HEK293FT; PAM SEQ 152. The settings on record: tags: SV40 NLS, 3xFLAG N-term; nucleoplasmin NLS C-term. A digest of the protocol: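 Editing read out by next-generation sequencing (MiSeq 2×250) of PCR amplicons spanning the target site, analysed for INDELs or % cytosine conversion per position (position 1 nearest PAM).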

B1: SGN000929 sgRNA ; SGN000929 target (ssRNA ; dsDNA)
RNA: AUCUGGAGGGAACUUACAGCAUAUGGUCAUAGUUCCAUGAAAGCCAAAAGUGGCUUUGAUGUUUCUAUGAUAAGGGUUUCGGCCCGUGGCGUCGGGGAUCGCCUGCCCAUUCCGAUGGGCUUCUCCCCAUUUAUU
DNA 1: ATCTGGAGGGAACTTACAGCATATG
DNA 2: CATATGCTGTAAGTTCCCTCCAGAT
In turn, B1 had an activity of 7.39 % mutated reads.

B2: SGN000169 sgRNA ; SGN000169 target (ssRNA ; dsDNA)
RNA: CACAUCUCGAGCAAGACGUUGUCAUAGUUCCAUUAAAGCCAAAAGUGGCUUUGAUGUUUCUAUGAUAAGGGUUUCGACCCGUGGCGUCGGGGAUCGCCUGCCCAUUGAAAUGGGCUUCUCCCCAUUUAUU
DNA 1: CACATCTCGAGCAAGACGTT
DNA 2: AACGTCTTGCTCGAGATGTG
Molecule B2 showed an activity of 6.89 % mutated reads.
